Columns and labels:
Assay in all cases: cell-based or functional assay
[1] = target: MOD-5014 (FVIIa-CTP3: activated Factor VII with three CTP peptides attached at the C-terminus) (human) (UniProt P08709)
[2] = target: NovoSeven® (commercial recombinant human FVIIa) (human) (UniProt P08709)
[3] = target: Factor X (UniProt P00742 41-488, limits assumed)
Sequence of Factor X (P00742 41-488 limits assumed): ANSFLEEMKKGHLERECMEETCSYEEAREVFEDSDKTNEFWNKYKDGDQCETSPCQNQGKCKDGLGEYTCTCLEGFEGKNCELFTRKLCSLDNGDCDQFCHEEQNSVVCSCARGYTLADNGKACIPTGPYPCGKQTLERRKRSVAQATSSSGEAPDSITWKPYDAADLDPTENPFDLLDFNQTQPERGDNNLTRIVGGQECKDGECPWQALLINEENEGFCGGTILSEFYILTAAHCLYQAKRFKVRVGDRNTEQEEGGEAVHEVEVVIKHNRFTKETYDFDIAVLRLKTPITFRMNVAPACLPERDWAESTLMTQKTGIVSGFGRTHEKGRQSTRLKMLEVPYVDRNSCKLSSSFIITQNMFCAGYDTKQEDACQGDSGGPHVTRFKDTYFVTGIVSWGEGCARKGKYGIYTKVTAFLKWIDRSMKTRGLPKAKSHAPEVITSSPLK

Sequence of NovoSeven® (commercial recombinant human FVIIa) (P08709 61-466 limits assumed): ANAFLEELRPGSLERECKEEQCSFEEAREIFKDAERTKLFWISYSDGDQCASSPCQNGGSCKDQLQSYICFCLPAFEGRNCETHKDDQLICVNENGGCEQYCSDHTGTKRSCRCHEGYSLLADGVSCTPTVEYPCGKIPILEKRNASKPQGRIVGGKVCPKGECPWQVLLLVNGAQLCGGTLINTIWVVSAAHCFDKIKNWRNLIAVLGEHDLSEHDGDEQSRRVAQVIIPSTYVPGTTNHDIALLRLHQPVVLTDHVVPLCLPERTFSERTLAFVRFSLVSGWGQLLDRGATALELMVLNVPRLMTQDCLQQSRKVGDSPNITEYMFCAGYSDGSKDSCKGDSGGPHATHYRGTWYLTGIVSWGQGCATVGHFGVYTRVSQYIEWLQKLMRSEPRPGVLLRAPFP
Sequence of NovoSeven® (commercial recombinant human FVIIa) (human) (P08709 61-466 limits assumed): as above
Sequence of MOD-5014 (FVIIa-CTP3: activated Factor VII with three CTP peptides attached at the C-terminus) (human) (P08709 61-212, chain 1 of 2): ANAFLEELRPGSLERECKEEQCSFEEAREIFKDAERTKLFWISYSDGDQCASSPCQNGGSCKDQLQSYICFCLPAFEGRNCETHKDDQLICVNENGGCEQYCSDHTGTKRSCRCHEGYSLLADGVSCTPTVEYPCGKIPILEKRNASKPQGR
Sequence of MOD-5014 (FVIIa-CTP3: activated Factor VII with three CTP peptides attached at the C-terminus) (human) (P08709 other isoform, or with tags, fused parts or gaps, chain 2 of 2): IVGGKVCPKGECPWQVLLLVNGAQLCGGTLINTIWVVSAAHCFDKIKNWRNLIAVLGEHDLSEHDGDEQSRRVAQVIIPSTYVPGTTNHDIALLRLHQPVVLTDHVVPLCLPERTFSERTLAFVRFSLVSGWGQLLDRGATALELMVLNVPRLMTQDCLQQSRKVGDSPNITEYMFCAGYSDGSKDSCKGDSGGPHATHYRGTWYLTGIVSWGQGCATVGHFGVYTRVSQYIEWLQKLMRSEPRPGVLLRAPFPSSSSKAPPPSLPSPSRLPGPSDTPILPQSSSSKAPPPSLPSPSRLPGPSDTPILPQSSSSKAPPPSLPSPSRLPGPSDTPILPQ

Anti thrombin III (ATIII) (from UniProt P01008 33-464)
% Inhibition of clotting activity, AT 1.050 ng/mL [1]: 25%
% Inhibition of clotting activity, AT 10.5 ng/mL [1]: 28%
% Inhibition of clotting activity, AT 105 ng/mL [1]: 25%
% Inhibition of clotting activity, AT 10,500 ng/mL [1]: 25%
% Inhibition of clotting activity, AT 105000 ng/mL [1]: 62%
% Inhibition of clotting activity, AT 525000 ng/mL [1]: 100%
Activity (mU/mL), Staclot clotting, AT 1.050 ng/mL [1]: 52.9 mU/mL
Activity (mU/mL), Staclot clotting, AT 10.5 ng/mL [1]: 50.7 mU/mL
Activity (mU/mL), Staclot clotting, AT 105 ng/mL [1]: 53.3 mU/mL
Activity (mU/mL), Staclot clotting, AT 1,050 ng/mL [1]: 53.4 mU/mL
Activity (mU/mL), Staclot clotting, AT 10,500 ng/mL [1]: 53 mU/mL
Activity (mU/mL), Staclot clotting, AT 105000 ng/mL [1]: 27 mU/mL
Activity (mU/mL), Staclot clotting, AT 525000 ng/mL [1]: 0 mU/mL
O.D, FX activation by MOD-5014 (0.7 ng/ml) at AT 0.16 µg/ml [1]: 1.18 O.D
O.D, FX activation by MOD-5014 (0.7 ng/ml) at AT 0.8 µg/ml [1]: 1.07 O.D
O.D, FX activation by MOD-5014 (0.7 ng/ml) at AT 4 µg/ml [1]: 1.14 O.D
O.D, FX activation by MOD-5014 (0.7 ng/ml) at AT 20 µg/ml [1]: 1.11 O.D
O.D, FX activation by MOD-5014 (0.7 ng/ml) at AT 100 µg/ml [1]: 0.974 O.D
O.D, FX activation by MOD-5014 (0.7 ng/ml) at AT 500 µg/ml [1]: 0.975 O.D
O.D, FX activation by MOD-5014 (0.7 ng/ml) at AT 1680 µg/ml [1]: 0.656 O.D
O.D., FX activation by MOD-5014 (0.7 ng/ml) with AT III 20 µg/ml and heparin 0.002 U/µl [1]: 1.29 O.D.
O.D., FX activation by MOD-5014 (0.7 ng/ml) with AT III 20 µg/ml and heparin 0.01 U/µl [1]: 1.14 O.D.
O.D., FX activation by MOD-5014 (0.7 ng/ml) with AT III 20 µg/ml and heparin 0.25 U/µl [1]: 0.017 O.D.
O.D., FX activation by MOD-5014 (0.7 ng/ml) with AT III 20 µg/ml and heparin 1.25 U/µl [1]: 0.896 O.D.
O.D., FX activation by MOD-5014 (0.7 ng/ml) with AT III 20 µg/ml and heparin 6.25 U/µl [1]: 1.02 O.D.
% Inhibition of clotting activity, AT 1.050 ng/mL [2]: 21%
% Inhibition of clotting activity, AT 105 ng/mL [2]: 20%
% Inhibition of clotting activity, AT 10,500 ng/mL [2]: 30%
% Inhibition of clotting activity, AT 525000 ng/mL [2]: 100%
Activity (mU/mL), Staclot clotting, AT 1.050 ng/mL [2]: 69.5 mU/mL
Activity (mU/mL), Staclot clotting, AT 10.5 ng/mL [2]: 68.4 mU/mL
Activity (mU/mL), Staclot clotting, AT 105 ng/mL [2]: 70.2 mU/mL
Activity (mU/mL), Staclot clotting, AT 1,050 ng/mL [2]: 66.8 mU/mL
Activity (mU/mL), Staclot clotting, AT 10,500 ng/mL [2]: 61.5 mU/mL
Activity (mU/mL), Staclot clotting, AT 105000 ng/mL [2]: 30.6 mU/mL
Activity (mU/mL), Staclot clotting, AT 525000 ng/mL [2]: 0 mU/mL
O.D, FX activation by NovoSeven (0.7 ng/ml) at AT 0.16 µg/ml [2]: 1.23 O.D
O.D, FX activation by NovoSeven (0.7 ng/ml) at AT 4 µg/ml [2]: 1.17 O.D
O.D, FX activation by NovoSeven (0.7 ng/ml) at AT 20 µg/ml [2]: 1.15 O.D
O.D, FX activation by NovoSeven (0.7 ng/ml) at AT 100 µg/ml [2]: 1.14 O.D
O.D, FX activation by NovoSeven (0.7 ng/ml) at AT 500 µg/ml [2]: 0.933 O.D
O.D, FX activation by NovoSeven (0.7 ng/ml) at AT 1680 µg/ml [2]: 0.784 O.D
O.D., FX activation by NovoSeven (0.7 ng/ml) with AT III 20 µg/ml and heparin 0.002 U/µl [2]: 1.24 O.D.
O.D., FX activation by NovoSeven (0.7 ng/ml) with AT III 20 µg/ml and heparin 0.01 U/µl [2]: 1.2 O.D.
O.D., FX activation by NovoSeven (0.7 ng/ml) with AT III 20 µg/ml and heparin 0.25 U/µl [2]: 1.04 O.D.
O.D., FX activation by NovoSeven (0.7 ng/ml) with AT III 20 µg/ml and heparin 1.25 U/µl [2]: 0.98 O.D.
O.D., FX activation by NovoSeven (0.7 ng/ml) with AT III 20 µg/ml and heparin 6.25 U/µl [2]: 1 O.D.

NovoSeven® (commercial recombinant human FVIIa) (from UniProt P08709 61-466) (enzyme)
EC50 of Factor X activation (BIOPHEN FVII chromogenic assay) [3]: 0.38 ng/mL
O.D, FX activation at rFVIIa 0.00128 ng/ml [3]: 0.123 O.D
O.D, FX activation at rFVIIa 0.00640 ng/ml [3]: 0.133 O.D
O.D, FX activation at rFVIIa 0.0320 ng/ml [3]: 0.138 O.D
O.D, FX activation at rFVIIa 0.160 ng/ml [3]: 0.178 O.D
O.D, FX activation at rFVIIa 0.80 ng/ml [3]: 0.303 O.D
O.D, FX activation at rFVIIa 4.00 ng/ml [3]: 0.352 O.D
O.D, FX activation at rFVIIa 20.00 ng/ml [3]: 0.365 O.D
O.D, FX activation at rFVIIa 100.00 ng/ml [3]: 0.363 O.D
